According to patent US9290794B2, “Mutant protease biosensors with enhanced detection characteristics” (PROMEGA CORPORATION, priority 2010, dated 2016):

Experiments:
Format in all cases: biochemical
caspase-3 [1] = assay: Cell-free (wheat germ) expressed CBS-HT, caspase-3 cleavage reaction, luminescence; settings: WG(HY), MIN. 5
Method: The CBS variant 1A5 was cloned into the vector pFN19K HaloTag® (Promega Cat. No. G1841) to generate a CBS-HaloTag® (CBS-HT) fusion protein (SEQ ID NOs:71 and 72). 20 μl (8 μg) of the CBS-HT vector was added to 30 μl TnT® SP6 High-Yield Wheat Germ Expression System (Promega Cat. No. L3261) and incubated at 25° C. for 90 min.
For the CBS-HT caspase-3 cleavage reaction, one volume of the expression reaction was incubated with an equal volume of either an E. coli lysate containing caspase-3 or C(3) Lysis Buffer (0.8× FastBreak (Promega Cat. No. V857A), 10 mM DTT, 0.1% CHAPS, 0.8 mg/mL Lysozyme, 3 U/μL RQ1 DNase (Promega Cat. No. M610A)) and incubated for 60 min at room temperature. The E. coli lysate containing caspase-3 was prepared from KRX cells overexpressing recombinant caspase-3. Briefly, KRX cells were transformed with pTS1k:caspase-3(T/S). A starter culture (50 mL, LB Broth) was inoculated from a single colony and grown for 17-22 hrs at 37° C. with shaking (275 rpm). The starter culture was diluted (1:50) into fresh media and growth was continued for an additional 3 hrs. The incubation temperature was then lowered to 25° C. and, after 15 min, expression of caspase-3 was initiated by addition of rhamnose (0.2% final concentration). After 2 hr, cells were collected by centrifugation, re-suspended in 50 mL C(3) Lysis Buffer and incubated at ambient temperature (i.e. 22-24° C.) for 10 min. The lysate was clarified by centrifugation (20,000×g for 20 min at 4° C.) and used as the Caspase-3 source.
Cleavage of CBS-HT by Caspase-3 was detected in two different ways: by SDS-PAGE analysis and luminescence detection. […] After electrophoresis, CA-TAM labeled species were detected by fluorescent imaging (ex:532, Em:580; FIG. 17). For detection via luminescence, 40 μL of the cleavage reaction samples were added to 60 μL buffer (50 mM HEPES (pH 7.5) and 100 μL Bright-Glo assay reagent. Luminescence was detected as previously described (Table 7).

caspase-3 [2] = assay: CBS-HT (cell-free expressed) immobilized to HaloLink resin, caspase-3 cleavage reaction
Method: For immobilization to a resin (FIG. 18A), HaloLink resin (25% slurry, Promega Cat. No. G1912) was first equilibrated with HTPB Buffer (50 mM HEPES (pH 7.5), 150 mM NaCl, 1 mM DTT and 0.5 mM EDTA). Resin from one volume of slurry was collected by centrifugation (5 min at 1000×g), and the storage buffer was removed. The resin pellet was re-suspended in 2 volumes of HTPB and mixed. This process was repeated for a total of three HTPB washes. 100 μL of the CBS-HT fusion from Example XI (cell free expression reaction) was mixed with 25 μL washed resin (50% slurry in HTPB) and incubated overnight with mixing at 4° C. Incubation was continued at ambient temperature for 2 hrs. After incubation, the resin was washed to remove un-bound CBS. The resin was split into two 50 μl aliquots, and each aliquot was washed 3 times with HTPB. The final resin pellets were re-suspended in 50 μL HTPB.
For the CBS caspase-3 cleavage reaction, 20 μl of the washed resin was mixed with 20 μL of either E. coli lysate containing caspase-3 or C(3) Lysis Buffer (as in Example XI) and incubated for 30 min at ambient temperature. 60 μl HEPES pH 7.5 was added to the samples, followed by the addition of 100 μl Bright-Glo Assay Reagent. Luminescence was detected as previously described (Table 8 and FIG. 19).

caspase-3 [3] = assay: CBS-HT (cell-free expressed) immobilized to HaloTag ligand microtiter plate, caspase-3 cleavage
Method: For immobilization to a plate (FIG. 18B), a microtiter plate was prepared containing HaloTag® ligand for immobilizing the CBS-HT fusion protein. Briefly, bicarbonate buffer pH 8.5 (100 μL), containing amine-PEG 2000-Cl alkane HaloTag® ligand (0.25 mM (final concentration; PBI 3961 and methoxy-PEG-NH2 (0.75 mM final concentration) were added to wells of a NHS microtiter plate and incubated for 1 hr at room temperature. The wells were then washed 3 times with PBS containing 0.05% Tween-20. After washing, 50 mM ethanolamine was added, and the plates were incubated for 30 min at room temperature and washed again 3 times with PBS containing 0.05% Tween-20. The plate was then stored at 4° C. with PBS containing 0.05% Tween-20 in each well. For the assay, the wells were washed 3 times with 200 μl HPTB. 50 μl CBS-HT cell-free expression reaction (Example XI) was added to the wells, and incubated overnight at 4° C. Following incubation, the plate was washed 3 times with 200 μl PBSI (1×PBS with 0.05% IGEPAL). 100 μL E. coli lysate containing caspase-3 or C(3) lysis buffer (described above) were added and the plate was incubated for 60 min with mixing at room temperature. The wells were then washed with 100 μl PBSI. 100 μL HEPES pH 7.5 and 100 μl Bright-Glo Assay Reagent were added and luminescence was detected as previously described (Table 9).

B1: CBS-HT: CBS variant 1A5 fused to HaloTag, expressed in wheat germ extract (SEQ ID NOs:71 and 72) (protein)
chain: MAEIGTGFPFDPHYVEVLGERMHYVDVGPRDGTPVLFLHGNPTSSYVWRNIIPHVAPTHRCIAPDLIGMGKSDKPDLGYFFDDHVRFMDAFIEALGLEEVVLVIHDWGSALGFHWAKRNPERVKGIAFMEFIRPIPTWDEWPEFARETFQAFRTTDVGRKLIIDQNVFIEGTLPMGVVRPLTEVEMDHYREPFLNPVDREPLWRFPNELPIAGEPANIVALVEEYMDWLHQSPVPKLLFWGTPGVLIPPAEAARLAKSLPNCKAVDIGPGLNLLQEDNPDLIGSEIARWLSTLEISGEPTTEDLYFQSDNAIAMPGSTGKIVPLHAVKVVDPTTGKILGPNEPGELYFKGPMIMKGYYNNEEATKAIIDNDGWLRSGDIAYYDNDGHFYIVDRLKSLIKYKGYQVAPAEIEGILLQHPYIVDAGVTGIPDEAAGELPAAGVVVQTGKYLNEQIVQDYVASQVSIAKWLRGGVKFLDEIPKGSTGKIDRKVLRQMLEKHTNGSDEVDGSLKNILYGPEPFYPLEDGTAGEQMFDALSRYAAIPGCIALTNAHTKENVLYEEFLKLSCRLAESFKKYGLKQNDTIAVCSENSLQFFLPVIASLYLGIIVAPVNDKYIERELIHSLGIVKPRIVFCSKNTFQKVLNVKSKLKSIETIIILDLNEDLGGYQCLNNFISQNSDSNLDVKKFKPYSFNRDDQVASIMFSSGTTGLPKGVMLTHKNIVARFSIAKDPTFGNAINPTSAILTVIPFHHGFGMMTTLGYFTCGFRVVLMHTFEEKLFLQSLQDYKVESTLLVPTLMAFLAKSALVEKYDLSHLKEIASGGAPLSKEIGEMVKKRFKLNFVRQGYGLTETTSAVLITPKGV
In the case of B1, the RESPONSE (caspase-3 [1]) is reported as 441, the BASAL luminescence (caspase-3 [1]; C(3) Lysis Buffer) is reported as 10,494 and the INDUCED luminescence (caspase-3 [1]; E. coli lysate containing caspase-3) is reported as 4,626,173. For the same molecule, the BASAL luminescence (caspase-3 [2]; sample AS) was 29,553, the INDUCED luminescence (caspase-3 [2]; sample AS) was 5,162,108 and the RESPONSE (caspase-3 [2]; sample AS) was 175. For the same molecule, the BASAL luminescence (caspase-3 [2]; sample FT) was 3,170, the INDUCED luminescence (caspase-3 [2]; sample FT) was 232,117 and the RESPONSE (caspase-3 [2]; sample FT) was 73. For the same molecule, the BASAL luminescence (caspase-3 [2]; sample RESIN) was 11,219, the INDUCED luminescence (caspase-3 [2]; sample RESIN) was 1,635,259 and the RESPONSE (caspase-3 [2]; sample RESIN) was 146. For the same molecule, the BASAL luminescence (caspase-3 [3]; MIN. 0) was 66, the INDUCED luminescence (caspase-3 [3]; MIN. 0) was 1,226 and the RESPONSE (caspase-3 [3]; MIN. 0) was 19. The BASAL luminescence (caspase-3 [3]; MIN. 1) was 16, the INDUCED luminescence (caspase-3 [3]; MIN. 1) was 1,636 and the RESPONSE (caspase-3 [3]; MIN. 1) was 102. For the same molecule, the BASAL luminescence (caspase-3 [3]; MIN. 2) was 106, the INDUCED luminescence (caspase-3 [3]; MIN. 2) was 2,267 and the RESPONSE (caspase-3 [3]; MIN. 2) was 21. The BASAL luminescence (caspase-3 [3]; MIN. 3) was 66, the INDUCED luminescence (caspase-3 [3]; MIN. 3) was 2,147 and the RESPONSE (caspase-3 [3]; MIN. 3) was 33. For the same molecule, the BASAL luminescence (caspase-3 [3]; MIN. 4) was 126, the INDUCED luminescence (caspase-3 [3]; MIN. 4) was 2,297 and the RESPONSE (caspase-3 [3]; MIN. 4) was 18. The BASAL luminescence (caspase-3 [3]; MIN. 5) was 126, the INDUCED luminescence (caspase-3 [3]; MIN. 5) was 2,857 and the RESPONSE (caspase-3 [3]; MIN. 5) was 23. For the same molecule, the BASAL luminescence (caspase-3 [3]; MIN. 6) was 76, the INDUCED luminescence (caspase-3 [3]; MIN. 6) was 3,107 and the RESPONSE (caspase-3 [3]; MIN. 6) was 41. For the same molecule, the BASAL luminescence (caspase-3 [3]; MIN. 7) was 56, the INDUCED luminescence (caspase-3 [3]; MIN. 7) was 3,377 and the RESPONSE (caspase-3 [3]; MIN. 7) was 60. The BASAL luminescence (caspase-3 [3]; MIN. 8) was 136, the INDUCED luminescence (caspase-3 [3]; MIN. 8) was 3,037 and the RESPONSE (caspase-3 [3]; MIN. 8) was 22. For the same molecule, the BASAL luminescence (caspase-3 [3]; MIN. 9) was 116, the INDUCED luminescence (caspase-3 [3]; MIN. 9) was 3,667 and the RESPONSE (caspase-3 [3]; MIN. 9) was 32.
